# Measurements reported in patent publication US20260234247A1 (published 2026).
# Positions count from the first letter of the chain named.
# B1: LK-RB2-36 (antibody, human IgG4 S228P, kappa, V domains shown)
# VH: QVQLQQSGAELVRPGASVKMSCKASGYTFTNYWIGWAKQRPGHGLEWIGDIYPGGTYTGYNEKFKGKATLTADKSSSTAYMQFSSLTSEDSAIYYCARRMDYDGYAMDYWGQGTSVTVSS
# VL: DIVLTQSPASLSVTPGDSVSLSCRASQSISNNLHWYQQKSHESPRLLIKYASQSISGIPSRFSGSGSGTDFTLSINSVETEDFGMYFCQQSNSWPLTFGAGTKLELKR
# B2: LK-RB2-4 (antibody, human IgG4 S228P, kappa, V domains shown)
# VH: EVQLVESGGDLVKPGGSLKLSCAASGFTFSNYGMSWVRQTPDKRLEWVATISSGGSYTFYPDSVKGRFTISRDNAKNTLYLQMSSLKSEDTALYYCARDYYYGKTIEGYFDYWGQGTTLTVSS
# VL: DIQMTQTTSSLSASLGDRVTISCRANQDISNYLNWYQQKPDGTVKLLIYYTSRLHSGVPSRFSGSGSGTDYSLTISDLEQEDIATYFCQQGNTLPWTFGGGTKLEIKR
# B3: LK-RB2-2 (antibody, human IgG4 S228P, kappa, V domains shown)
# VH: DVKLEESGEGLVKPGGSLKLSCAASGFTFSSYAMSWVRQTPEKRLEWVAYISSGGDYFHYADTVKGRFTISRDNARNTLYLQMSSLKSEDTAMYYCTREGAHYDSSYLAWFAHWGQGTLVTVSA
# VL: DIQMTQSPASLSVSVGETVTITCRASENIYSNLAWYQQRQGKSPQLLVYAATNLADGVPSRFSGSGSGTQYSLKINSLQSEDFGSYYCQQFWDNPLTFGAGTKLELKR
# B4: LK-RB2-40 (antibody, human IgG4 S228P, kappa, V domains shown)
# VH: DVQLQESGPGLVKPSQSLSLTCSVTGYSITSGYYWNWIRQFPGNKLEWMAYISYDGSNNYNPSLKNRISITRDTSKNQFFLKLNSVTTEDTATYYCAREEGTAQATLGYFDYWGQGTTLTVSS
# VL: B3 VL with R39K, Q90H, N94T, L96F, A100S, L106I
# B5: LK-RB2-30 (antibody, human IgG4 S228P, kappa, V domains shown)
# VH: EVQLVESGGGLVQPGGSLKLSCAASGFTFNTDGMSWVRQTPDKRLELVAIINSNGGSTYYPDSVKGRFTISRDNAKNTLYLQMSSLKSEDTAMYYCAREGSYGSWFAYWGQGTLVTVSA
# VL: B3 VL with Y30N, S31N, Q37H, R39K, Q90H, D93G, N94T, L96F, A100G, L106I
# B6: LK-RB2-21 (antibody, human IgG4 S228P, kappa, V domains shown)
# VH: EVQLVESGGDLVKPGGSLKLSCAASGFTFSSYGMSWVRQTPDKRLEWVATISSGGSYTYYPDSLKGRFTISRDNAKSTLYLQMSSLKSEDTAKYYCARPYYDYIFYAIDYWGQGTSVTVSS
# VL: DIQMNQSPSSLSASLGDTITITCHASQNINVWLSWYQQKPGNIPKLLIYKASNLHTGVPSRFSGSGSGTGFTLTISSLQPEDIATYYCQQGQSYPLTFGGGTKLEIKR
# B7: LK-RB2-14 (antibody, human IgG4 S228P, kappa, V domains shown)
# VH: QVQLKQSGPGLVQPSQSLSITCTVSGFSLTSYGVHWVRQSPGKGLEWLGVIWRGGSTDYNAAFMSRLSITKDNSKSQVFFKMNSLQADDTAIYYCAKNEGDSTVVAWYFDVWGTGTTVTVSS
# VL: DIQMTQTTSSLSASLGDRVTISCSASQGISNYLNWFQQKPDGTVKLLIYYTSSLHSGVPSRFSGSGSGTDYSLTISNLEPEDIATYYCQQYSKLPLTFGAGTKLELKR
# B8: LK-RB2-3 (antibody, human IgG4 S228P, kappa, V domains shown)
# VH: QLQLQQSDAELVKPGASVKISCKVSGYSFTDHTIHWMKQRPEQGLEWIGYIYPRDGSTKENEKFTGKATLTADKSSSTAYMQLTSLTSEDSAVYFCTGSGFDYWGQGTSLTVSS
# VL: DIKMTQSPSSMYASLGERVTITCKASQDIKSYLSWFQQKPGKSPKTLIYRANRLVDGVPSRFSGSGSGQDYSLTINSLEYEDMEIYYCLQYDEFPYTFGGGTKLEIKR
# B9: LK-RB2-42 (antibody, human IgG4 S228P, kappa, V domains shown)
# VH: EFQLQQSGPELVKPGASVKISCKASGYSFTDYNMNWVKQSNGKSLDWIGIINPKYGTTAYNQKLRDKATLTVDQSSSTAYMQLNSLTSEDSAVYYCASLNWDEGFAYWGQGTLVTVSP
# VL: DVLMTQTPLSLPVSLGDQASISCRSSQSIVHSNGNTYLEWYLQKPGQPPKLLIYKVSNRFSGVPERFSGSGSGTDFTLKINRVEAEDLGVYYCFQGSLVPPTFGGGTKLEIKR
# B10: LK-RB2-38 (antibody, human IgG4 S228P, kappa, V domains shown)
# VH: EVKLVESGGGLVQPGGSLKLSCAASGFSFSDYYMYWVRQTPEKRLEWVAYISNGGGNTYYPDTVKGRFTISRDNAKNSLYLQMSRLKSEDTGMYYCARDREDWYFDVWGTGTTVTVSS
# VL: DIVMTQSHTFMSTSVGDRVSITCKASQDVSTAVAWYQQKPGQSPKLLIYWASTRHTGVPDRFTGSGSGTDYTLTISSVQAEDLALYYCQQHYSTPRTFGGGTKLEIKR
# B11: LK-RB2-19 (antibody, human IgG4 S228P, kappa, V domains shown)
# VH: QVQLQQPGAELVKPGASVKLSCKASGYTFTSYWMHWVKQRPGQGLEWIGMIHPNSGGTNYNEKFKSKATLTVDKSSSTAYMQFSSLTSEDSAVYYCARCTVVALYYALDYWGQGTSVTVSS
# VL: QIVLSQSPAILSASPGEKVTMTCRATSRVSYIHWFQQKPGSSPKPWIYVTSNLASGVPARFSGSGSGTSYSLTISKLEAEDVATYYCQQWSTNPLTFGAGTKLELKR
# B12: LK-RB2-29 (antibody, human IgG4 S228P, kappa, V domains shown)
# VH: QVQLQQSGAELARPGASVKLSCKASGYTFTSYWMQWVKQRPGQGLEWIGAIYPGDGDTRYTQKFKGKATLTADKSSSTAYMQLSSLASEDSAVYYCARGYYGSSYADYFDYWGQGTTLTVSS
# VL: DIQMTQSPASLSASVGETVTITCRASGNIHNYLAWYQQKQGKSPQLLVYNAKTLADGVPSRFSGSGSGTQYSLKINSLQPEDFGSYYCQHFWSTPPTFGGGTKLEIKR
# B13: LK-RB2-1 (antibody, human IgG4 S228P, kappa, V domains shown)
# VH: QIQLVQSGPELKKPGETVKISCKASGYTFTTYGMSWVKQAPGKGLKWMGWINTYSGVSTYADDFKGRFAFSLETSASTAYLQINNLKNEDTATYFCARRYDYDGYAMDYWGQGTSVTVSS
# VL: DIVMSQSPSSLAVSVGEKVTMSCKSSQSLLFSSNQKNYLAWYQQKPGQSPKLLIYWASTRESGVPDRFTGRGSGTDFTLTISSVKTEDLAVYYCQQYDTYPPTFGGGTKLEIKR
# B14: LK-RB2-23 (antibody, human IgG4 S228P, kappa, V domains shown)
# VH: B13 VH with T53I, S58P, Y100G, A106Y, M107F, S115T, V116L
# VL: NIVLIQSAATLSVTPGDSVSLSCRASQSLSNGLHWYQQKSHESPRLLIKYGSQSISGIPSRFSGSGSGTDFTLSINSVETEDFGMYFCQQSDSWPHTFGSGTKLEIKR
# B15: LK-RB2-37 (antibody, human IgG4 S228P, kappa, V domains shown)
# VH: B13 VH with L11V, S58P, A76V, A92S, Y100R
# VL: B13 VL with F31Y, S33G, T59A, R71S, T86A, D98Y, P102F, G106S
# B16: LK-RB2-22 (antibody, human IgG4 S228P, kappa, V domains shown)
# VH: B13 VH with P14T, T53I, S58P, Y100A, A106Y, M107F, S115T, V116L
# VL: NIVMTQTPKFLLVSAGDRVTITCRASQSVTNDVAWYQQRPGQSLKLLIYYASNRYTGVPDRFTGSGYGTDFTFTISTVQAEDLAVYFCQQGYSSPFTFGSGTKLEIKR
# B17: LK-RB2-33 (antibody, human IgG4 S228P, kappa, V domains shown)
# VH: EVQLQQSGVELVRPGALVKLSCKASGFNIKDYYMHWVKQRPEQGLEWIGWIDPEKGDTIYGPKFQGKASITADTSSNTAYLQLSSLTSEDTAVYYCSRGPNYGSSYAFAYWGQGTLVTVSA
# VL: DVVMTQSHKFMSTSVGDRVTITCKASQDVSNAVAWYQQKPGQSPKLLIYSASYRYTGVPDRFTGSGSGTDFTFTISSMQAEDLAVYYCQQHYSLPWTFGGGTKLEIKR
# B18: LK-RB2-35 (antibody, human IgG4 S228P, kappa, V domains shown)
# VH: EVQLQQSGPELVKPGASVKISCKASGYTFTDYNMHWVKQSHGKSLEWIGSIYPYNGGSDYNQKFKSKATLTVDNSSSTAYMELRSLTSEDSAVYYCASELTGLYAMDYWGQGTSVTVSS
# VL: DIVMTQSPATLSVTPGDRVSLSCRASQSISDYLHWYQQKSHESPRLLIKYASQSISGIPSRFSGSGSGSDFTLSINSVEPEDVGVYYCQTGHSFPYTFGGGTKLEIKR
# Target: T1, human LILRB2 expressed on CHOK1 cells (CHOK1-hLILRB2) (human, UniProt Q8N423 22-597)
# T1 construct: whole, on cells; also called CHOK1-LILRB2
# Test: FACS binding to CHOK1-hLILRB2 cells
# T1 sequence (Q8N423 22-597): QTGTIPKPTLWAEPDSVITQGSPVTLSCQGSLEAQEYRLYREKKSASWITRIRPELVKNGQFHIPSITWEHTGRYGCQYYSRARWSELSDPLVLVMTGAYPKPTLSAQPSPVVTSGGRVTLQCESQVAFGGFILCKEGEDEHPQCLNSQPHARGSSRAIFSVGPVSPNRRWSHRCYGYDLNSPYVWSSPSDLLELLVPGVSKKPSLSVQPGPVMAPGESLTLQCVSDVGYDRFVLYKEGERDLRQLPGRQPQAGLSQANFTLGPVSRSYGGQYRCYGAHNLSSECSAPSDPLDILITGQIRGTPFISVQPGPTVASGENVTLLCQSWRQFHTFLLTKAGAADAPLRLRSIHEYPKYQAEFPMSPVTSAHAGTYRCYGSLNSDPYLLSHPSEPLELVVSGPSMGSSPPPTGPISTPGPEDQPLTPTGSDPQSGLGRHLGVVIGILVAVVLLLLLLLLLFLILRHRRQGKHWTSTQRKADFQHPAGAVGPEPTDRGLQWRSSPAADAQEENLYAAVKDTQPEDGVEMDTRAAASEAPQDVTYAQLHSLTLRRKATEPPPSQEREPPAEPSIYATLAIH
EC50,binding result,Binder
0.72 nM,–,B1
1.61 nM,–,B2
0.25 nM,–,B3
0.53 nM,–,B4
–,no binding,B5
2.28 nM,–,B6
0.29 nM,–,B7
0.4 nM,–,B8
–,no binding,B9
–,no binding,B10
2.34 nM,–,B11
–,no binding,B12
0.24 nM,–,B13
0.26 nM,–,B14
0.34 nM,–,B15
0.22 nM,–,B16
0.91 nM,–,B17
0.18 nM,–,B18

# Target: T1, human LILRB2 expressed on CHOK1 cells …
# Test: cell based RBA, flow cytometry: blocking of HLA-G binding to CHOK1-hLILRB2 cells
EC50,Top Inhibition,Binder
0.506 nM,80.6%,B1
1.71 nM,65.2%,B2
0.134 nM,74.5%,B3
0.445 nM,79.4%,B4
1.61 nM,62.4%,B6
0.231 nM,73.8%,B7
0.946 nM,73.2%,B8
50.3 nM,18.1%,B11
0.323 nM,73.7%,B13
0.198 nM,71.2%,B14
0.268 nM,77.3%,B15
0.112 nM,71.1%,B16
1.87 nM,90%,B17
0.203 nM,88.4%,B18

# Target: T2, human LILRB1 expressed on CHOK1 cells (CHOK1-hLILRB1) (human, UniProt Q8NHL6 24-650)
# T2 construct: whole, on cells; also called CHOK1-LILRB1
# Test: FACS binding to CHOK1-hLILRB1 cells
# T2 sequence (Q8NHL6 24-650): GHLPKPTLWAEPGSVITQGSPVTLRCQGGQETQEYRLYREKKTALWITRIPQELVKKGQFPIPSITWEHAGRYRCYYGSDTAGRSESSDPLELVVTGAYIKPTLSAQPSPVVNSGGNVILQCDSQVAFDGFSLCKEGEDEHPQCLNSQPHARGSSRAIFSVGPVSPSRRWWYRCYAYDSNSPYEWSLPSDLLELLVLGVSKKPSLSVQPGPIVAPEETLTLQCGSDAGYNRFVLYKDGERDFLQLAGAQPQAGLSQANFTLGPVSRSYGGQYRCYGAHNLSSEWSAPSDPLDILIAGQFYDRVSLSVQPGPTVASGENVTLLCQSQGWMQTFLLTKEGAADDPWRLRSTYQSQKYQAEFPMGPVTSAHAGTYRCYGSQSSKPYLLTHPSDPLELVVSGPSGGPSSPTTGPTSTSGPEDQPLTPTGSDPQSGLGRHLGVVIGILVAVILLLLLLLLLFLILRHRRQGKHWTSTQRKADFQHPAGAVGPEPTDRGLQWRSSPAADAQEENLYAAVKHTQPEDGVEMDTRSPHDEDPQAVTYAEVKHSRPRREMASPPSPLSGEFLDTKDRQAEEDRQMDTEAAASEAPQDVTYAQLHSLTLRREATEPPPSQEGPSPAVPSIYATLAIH
binding result,EC50,Binder
no binding,–,B1
no binding,–,B2
no binding,–,B3
no binding,–,B4
no binding,–,B5
no binding,–,B6
no binding,–,B7
no binding,–,B8
no binding,–,B9
no binding,–,B10
–,7.06 nM,B11
no binding,–,B12
no binding,–,B13
–,65.5 nM,B14
no binding,–,B15
–,45.3 nM,B16
no binding,–,B17
no binding,–,B18
